The results in this text go back to patent US20250092130A1 (INNATE PHARMA, published 2025).

The target of assay [1] is T1, human KIR3DL2 (wild-type, allele *002) (human, UniProt P43630 22-455).
T1 construct: also called CD158k; WTaKIR3DL2
Briefly: flow cytometry on HUT78, COU-L and HEK-293T/KIR3DL2 Domain 0-eGFP cells; Biacore on rec KIR3DL2 chips. On the procedure: Antibodies which bind KIR3DL2 but not closely-related KIR3DL1 were generated by immunizing mice with recombinant KIR3DL2-Fc fusion protein. Supernatants (SN) of the growing hybridomas were tested by flow cytometry on Sézary Syndrome cell lines (HUT78, COU-L) and HEK-293T/KIR3DL2 Domain 0—eGFP. Potentially interesting hybridomas selected from the initial screening were cloned by limiting dilution techniques in 96-well plates. The secondary screen involved selection of hybridomas of interest by testing supernatants of the subclones by flow cytometry on HUT78, COU-L, HEK-293T/KIR3DL1 Domain 0—eGFP and HEK-293T/KIR3DL2 Domain 0—eGFP. Positive subclones were injected into mice to produce ascitis and antibodies of interest were purified before being tested in a Biacore assay using rec KIR3DL2 chips, followed by various assay formats based on binding to human KIR3DL2-expressing cells.
(In general: A flow cytometer gives signals particle by particle.)

Assay [2] addresses KIR3DL2 mutant 11 (P179T, S181T) (human, UniProt P43630 22-455). Briefly: binding to cells transfected with KIR3DL2 mutants.
Assay [3] has as its target KIR3DL2 mutant 11A1 (V178A, H180S) (human, UniProt P43630 22-455). Briefly: binding to cells transfected with KIR3DL2 mutants.
The target in assay [4] is KIR3DL2 mutant M11A4 (E130S, H131S, R145S) (human, UniProt P43630 22-455). Briefly: binding to cells transfected with KIR3DL2 mutants.
Chain of KIR3DL2 mutant M11A4 (E130S, H131S, R145S) (P43630 other isoform, or with tags, fused parts or gaps E130S H131S R145S E130S H131S R145S): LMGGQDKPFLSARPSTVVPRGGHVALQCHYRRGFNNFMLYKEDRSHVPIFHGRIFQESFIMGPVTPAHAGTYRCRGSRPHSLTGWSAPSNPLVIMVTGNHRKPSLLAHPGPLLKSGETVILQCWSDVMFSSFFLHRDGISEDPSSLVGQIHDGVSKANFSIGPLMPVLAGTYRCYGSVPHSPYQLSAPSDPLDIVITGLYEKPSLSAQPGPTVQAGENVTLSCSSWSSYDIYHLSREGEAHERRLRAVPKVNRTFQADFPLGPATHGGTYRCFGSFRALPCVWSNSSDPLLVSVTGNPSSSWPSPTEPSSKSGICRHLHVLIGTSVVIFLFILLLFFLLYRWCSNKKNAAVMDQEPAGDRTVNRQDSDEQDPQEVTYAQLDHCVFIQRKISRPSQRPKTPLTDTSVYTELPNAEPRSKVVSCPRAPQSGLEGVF
For assay [5], the target named is T1, human KIR3DL2 (wild-type, allele *002). Briefly: immunohistochemistry (DAB) on frozen sections of RAJI-KIR3DL2 tumors and cell lines. The protocol:
Tumor biopsies from RAJI-KIR3DL2 models and RAJI-KIR3DL2 cell lines were obtained and staining was performed on frozen samples using AZ158 antibody (see WO2010/081890) or antibodies 12B11 (see Example 1). KIR3DL2 was stained with anti-KIR3DL2 antibody by DAB chromogenic detection according to standard protocols, adapted for immunostaining with BenchMark XT (Ventana, Roche). For all staining control isotype (mIgG1) and control DAB were performed.

For assay [6], the target named is T2, KIR3DL2 mutant having I60N and G62S substitutions (human, UniProt P43630 22-455).
T2 construct: It says 'mutants'; also called mutants having 160N and G62S substitutions
T2 sequence (P43630 other isoform, or with tags, fused parts or gaps I60N G62S I60N G62S): as the sequence (P43630 other isoform, or with tags, fused parts or gaps E130S H131S R145S E130S H131S R145S) above, with I60N, G62S, S130E, S131H, S145R counted along it
Briefly: binding to KIR3DL2 mutants.

T1 sequence (P43630 22-455 E158D): as the sequence (P43630 other isoform, or with tags, fused parts or gaps E130S H131S R145S E130S H131S R145S) above, with S130E, S131H, S145R counted along it
Chain of KIR3DL2 mutant 11 (P179T, S181T) (P43630 other isoform, or with tags, fused parts or gaps P179T S181T P179T S181T): as the sequence (P43630 other isoform, or with tags, fused parts or gaps E130S H131S R145S E130S H131S R145S) above, with S130E, S131H, S145R, P179T, S181T counted along it
Chain of KIR3DL2 mutant 11A1 (V178A, H180S) (P43630 other isoform, or with tags, fused parts or gaps V178A H180S V178A H180S): as the sequence (P43630 other isoform, or with tags, fused parts or gaps E130S H131S R145S E130S H131S R145S) above, with S130E, S131H, S145R, V178A, H180S counted along it

B1: antibody 19H12 (antibody, IgG2b, V domains shown)
VH: QIQLVQSGPELKKPGETVKISCKASGYTFTNFGMNWVKQAPGKGLKWMGWINTYTGEPTYADDFKGRFAFSLETSASTAYLQINNLKNEDMATYFCARNGNFGYYFDYWGQGTTLTVSS
VL: DVLMTQTPLSLPVSLGDQASFSCRSSQNIVHSNGNTYLEWYLQKPGQSPSLLIYKVSNRFSGVPDRFSGSGSGTDFTLKITRVEAEDLGVYYCFQGSHVPFTFGSGTKLEIK
notes: Mouse monoclonal from a hybridoma; also called anti-KIR3DL2 19H12
With B1, the binding result in assay [1] was “binds”; in assay [2], “no binding”; in assay [3], “no binding”; in assay [4], “no binding”.

B2: antibody 12B11 (antibody, IgG1, V domains shown)
VH: QLVQSGPELKNPGETVKISCKASGYTFTNYGMNWVKQAPGKGLKWMGWINTYTGEPTYADDFKGRFAFSLETSASTAYLQINNLKNEDTATYFCAHGPWLAYWGQGTLVTVS
VL: DIKMTQSPSSMYASLGERVTITCKASQDINVYLSWFQQKPGKSPKTLIYRAIRLVDGVPSRFSGSGSGQDYSLTISSLDYEDMGIYYCLQYDELPYTFGGGTKLEIE
notes: Mouse monoclonal
With B2, the binding result in assay [2] is reported as “no binding”; in assay [3], “no binding”; in assay [5] it was “binds”.

B3: antibody 2B12 (antibody, V domains shown)
VH: QIQLVQSGPELKKPGETVRISCKASGYTFTTAGMQWVQKTPGKGLKWIGWINSHSGVPKYAEDFKGRFAFSLETSASTAYLQISTLKNEDTATYFCARGGDEGVMDYWGQGTSVTVS
VL: DIVMTQSHKFMSTSLGDRVSFTCKASQDVSTAVAWYQQKPGQSPKLLIYWTSTRHTGVPDRFTGSGSGTDYTLTISSVQAEDLALYYCQQHYSTPWTFGGGTKLEIK
Consider B3, for which the binding result in assay [6] is on record as “no binding”.
